# Measured values from paper PMC6226434.
# T1: full-length human ETA receptor construct with an internal FLAG epitope tag (human) (UniProt P25101)
# T1 sequence: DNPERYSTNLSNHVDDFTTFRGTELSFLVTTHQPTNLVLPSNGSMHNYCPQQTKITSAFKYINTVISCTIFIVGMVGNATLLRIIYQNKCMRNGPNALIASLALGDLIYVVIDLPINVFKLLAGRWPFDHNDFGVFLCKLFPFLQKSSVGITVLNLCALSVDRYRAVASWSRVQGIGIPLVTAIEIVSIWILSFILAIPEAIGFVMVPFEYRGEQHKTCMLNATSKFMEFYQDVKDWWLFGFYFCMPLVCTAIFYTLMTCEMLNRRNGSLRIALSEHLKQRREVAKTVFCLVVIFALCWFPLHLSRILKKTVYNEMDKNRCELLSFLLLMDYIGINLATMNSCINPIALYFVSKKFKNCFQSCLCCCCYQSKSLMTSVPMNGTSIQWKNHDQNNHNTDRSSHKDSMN
# T2: ETA-SmBiT construct (human ETA receptor with SmBiT at the C-terminus) (human) (UniProt P25101)
# T2 sequence: T1 sequence
# B1: endothelin-3 (peptide)
# peptide: CTCFTYKDKECVYYCHLDIIW
# Experiments:
# [1] = target: human ETB receptor, wild type, codon-optimized construct with an internal FLAG epitope tag (human) (UniProt P24530)
# [2] = target: human ETB receptor L252H I254T double mutant (human) (UniProt P24530)
# [3] = target: human ETB receptor, wild type, codon-optimized construct with an internal FLAG epitope tag (human) (UniProt P24530); remark: listed apart in the source
# [4] = target: thermostabilized human ETB receptor (ETB-Y5), construct with an internal FLAG epitope tag (human) (UniProt P24530)
# [5] = target: ETB-SmBiT construct (human ETB receptor with SmBiT at the C-terminus) (human) (UniProt P24530)
# [6] = target: ETB-Y5 with SmBiT at the C-terminus (thermostabilized human ETB receptor) (human) (UniProt P24530)
# [7] = target: T1, full-length human ETA receptor construct with an internal FLAG epitope tag (human)
# [8] = target: T2, ETA-SmBiT construct (human ETA receptor with SmBiT at the C-terminus) (human)
Molecule,"AP-TGFα release (TGFα shedding assay), EC50; experiment with the double mutant [1] [nM]","AP-TGFα release (TGFα shedding assay), EC50 [2] [nM]","AP-TGFα release (TGFα shedding assay), EC50 [3] [nM]","AP-TGFα release (TGFα shedding assay), Emax relative to ET-1 [3] [%]","AP-TGFα release (TGFα shedding assay), EC50 [4] [nM]","AP-TGFα release (TGFα shedding assay), Emax relative to ET-1 [4] [%]","β-arrestin recruitment (NanoBiT, receptor-SmBiT with m12), EC50 [5] [nM]","β-arrestin recruitment (NanoBiT, receptor-SmBiT with m12), Emax relative to ET-1 [5] [%]","β-arrestin recruitment (NanoBiT, receptor-SmBiT with m12), EC50 [6] [nM]","β-arrestin recruitment (NanoBiT, receptor-SmBiT with m12), Emax relative to ET-1 [6] [%]","AP-TGFα release (TGFα shedding assay), EC50 [7] [nM]","AP-TGFα release (TGFα shedding assay), Emax relative to ET-1 [7] [%]","β-arrestin recruitment (NanoBiT, receptor-SmBiT with m12), EC50 [8] [nM]","β-arrestin recruitment (NanoBiT, receptor-SmBiT with m12), Emax relative to ET-1 [8] [%]"
"IRL1620 (N-Suc-[E9, A11, 15] ET-1(8-21)) (peptide)",0.14,0.32,0.11,87.6,0.92,83.6,3.1,87.3,15.1,85.4,–,–,–,–
B1,–,–,0.13,100,0.077,101,3.3,105,3.5,105,0.65,101,10.8,81.1
